This note sets out measurements from PMC9273934 (2022).

T1: recombinant CD81 large extracellular loop
T1 chain: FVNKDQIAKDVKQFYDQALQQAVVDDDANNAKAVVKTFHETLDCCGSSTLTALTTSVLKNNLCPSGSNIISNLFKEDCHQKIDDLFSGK

B1: Fc-E1E2 from J6 (GT2a), recombinant full-length E1E2 heterodimer (complex)
chain 1: AEVKNISTGYMVTNDCTNDSITWQLQAAVLHVPGCVPCEKVGNASQCWIPVSPNVAVQRPGALTQGLRTHIDMVVMSATLCSALYVGDLCGGVMLAAQMFIVSPQHHWFVQDCNCSIYPGTITGHRMAWDMMMNWSPTATMILAYAMRVPEVIIDIISGAHWGVMFGLAYFSMQGAWAKVVVILLLAAGVDA
chain 2: RTHTVGGSAAQTTGRLTSLFDMGPRQKIQLVNTNGSWHINRTALNCNDSLHTGFIASLFYTHSFNSSGCPERMSACRSIEAFRVGWGALQYEDNVTNPEDMRPYCWHYPPRQCGVVSAKTVCGPVYCFTPSPVVVGTTDRLGAPTYTWGENETDVFLLNSTRPPLGSWFGCTWMNSSGYTKTCGAPPCRTRADFNASTDLLCPTDCFRKHPDTTYLKCGSGPWLTPRCLIDYPYRLWHYPCTVNYTIFKIRMYVGGVEHRLTAACNFTRGDRCNLEDRDRSQLSPLLHSTTEWAILPCSYSDLPALSTGLLHLHQNIVDVQFMYGLSPALTKYIVRWEWVILLFLLLADARVCACLWMLILLGQAEA
B2: Fc-E1E2 from HK6a (GT6a), recombinant full-length E1E2 heterodimer (complex)
chain 1: LTYGNSSGLYHLTNDCPNSSIVLEADAMILHLPGCLPCVRVNNNQSICWHAVSPTLAIPNASTPATGFRRHVDLLAGAAVVCSSLYIGDLCGSLFLAGQLFTFQPRRHWTVQDCNCSIYTGHVTGHRMAWDMMMNWSPTTTLVLSSILRVPEICASVISGGHWGILLAVAYFGMAGNWLKVLAVLFLFAGVE
chain 2: ATTTIGHQVGRTTGGLASLFSIGPRQNLQLINTTGSWHINRTALNCNDSLQTGFITSLFYAKNVNSSGCPERMAACKPLADFRQGWGQITYKVNISGPSDDRPYCWHYAPRPCDVVSARTVCGPVYCFTPSPVVVGTTDKLGIPTYNWGENETDVFMLESLRPPTGGWFGCTWMNSTGFTKTCGAPPCQIVPGDYNSSANELLCPTDCFRKHPEATYQRCGSGPWITPRCLVDYPYRLWHYPCTVNFTLHKVRMFVGGIEHRFDAACNWTRGERCDLHDRDRIEMSPLLFSTTQLAILPCSFSTMPALSTGLIHLHQNIVDVQYLYGVSSSVTSWVVKWEYIVLVFLVLADARICTCLWLMLLITNVEA
B3: Fc-E1E2 from S52 (GT3a), recombinant full-length E1E2 heterodimer (complex)
chain 1: LEWRNTSGLYVLTNDCSNSSIVYEADDVILHTPGCVPCVQDDNTSTCWTPVTPTVAVRYVGATTASIRSHVDLLVGAATLCSALYVGDMCGAVFLVGQAFTFRPRRHQTVQTCNCSLYPGHVSGHRMAWDMMMNWSPAVGMVVAHILRLPQTLFDILAGAHWGILAGLAYYSMQGNWAKVAIVMIMFSGVDA
chain 2: ETYVTGGSVAHSARGLTSLFSMGAKQKLQLVNTNGSWHINSTALNCNESINTGFIAGLFYYHKFNSTGCPQRLSSCKPIISFRQGWGPLTDANITGPSDDRPYCWHYAPRPCSVVPASSVCGPVYCFTPSPVVVGTTDIKGKPTYNWGENETDVFLLESLRPPSGRWFGCAWMNSTGFLKTCGAPPCNIYGGEGDPENETDLFCPTDCFRKHPEATYSRCGAGPWLTPRCMVDYPYRLWHYPCTVNFTLFKVRMFVGGFEHRFTAACNWTRGERCNIEDRDRSEQHPLLHSTTELAILPCSFTPMPALSTGLIHLHQNIVDVQYLYGVGSDMVGWALKWEFVILVFLLLADARVCVALWLMLMVSQAEA
B4: Fc-E1E2 from Con1 (GT1b), recombinant full-length E1E2 heterodimer (complex)
chain 1: YEVRNVSGVYHVTNDCSNASIVYEAADMIMHTPGCVPCVRENNSSRCWVALTPTLAARNASVPTTTIRRHVDLLVGAAALCSAMYVGDLCGSVFLVAQLFTFSPRRHETVQDCNCSIYPGHVTGHRMAWDMMMNWSPTAALVVSQLLRIPQAVVDMVAGAHWGVLAGLAYYSMVGNWAKVLIVMLLFAGVDG
chain 2: GTYVTGGTMAKNTLGITSLFSPGSSQKIQLVNTNGSWHINRTALNCNDSLNTGFLAALFYVHKFNSSGCPERMASCSPIDAFAQGWGPITYNESHSSDQRPYCWHYAPRPCGIVPAAQVCGPVYCFTPSPVVVGTTDRFGVPTYSWGENETDVLLLNNTRPPQGNWFGCTWMNSTGFTKTCGGPPCNIGGIGNKTLTCPTDCFRKHPEATYTKCGSGPWLTPRCLVHYPYRLWHYPCTVNFTIFKVRMYVGGVEHRLEAACNWTRGERCNLEDRDRSELSPLLLSTTEWQVLPCSFTTLPALSTGLIHLHQNVVDVQYLYGIGSAVVSFAIKWEYVLLLFLLLADARVCACLWMMLLIAQAEA

In one assay the target is T1, recombinant CD81 large extracellular …. Put plainly: SPR.
By koff is commonly meant the first-order rate constant of dissociation. Regarding B1, the koff worked out at 0.00104 s⁻¹.

Take B2: the koff was found to be 0.0022 s⁻¹.

As for B3, the koff is 0.000465 s⁻¹.

With B4, the koff was 0.00277 s⁻¹.

The next assay deals with recombinant CD81 large extracellular loop. Put plainly: SPR; BiaCore T200, CM5 chip, room temperature; CD81-LEL immobilised at about 150 RU; Fc-E1E2 flowed at 0-250 ug/ml; HBS-EP pH 7.4, 150 mM NaCl; 1:1 steady state binding model. On the technique in general: In SPR one partner is held on a chip, and binding of the other changes the refractive index at the surface.
Broadly, the Kd is the concentration at which binding is half-saturated. Consider “Fc-E1E2 from Con1 (GT1b), recombinant full-length E1E2 heterodimer (from UniProt Q9WMX2 192-383; Q9WMX2 384-746) (complex)”, for which the Kd worked out at 327 nM.

For the molecule “Fc-E1E2 from H77 (GT1a), recombinant full-length E1E2 heterodimer (complex)”, the Kd was determined as 382 nM.

For the molecule “Fc-E1E2 from HK6a (GT6a), recombinant full-length E1E2 heterodimer (complex)”, the Kd was found to be 775 nM.

As for “Fc-E1E2 from J6 (GT2a), recombinant full-length E1E2 heterodimer (complex)”, the Kd stood at 243 nM.

“Fc-E1E2 from S52 (GT3a), recombinant full-length E1E2 heterodimer (complex)”: the Kd was determined as 71 nM.
